assay: soluble on expression in E. coli; label from the status in PepcDB or PDB records

Soluble on expression in E. coli, not soluble:
MGSDKIHHHHHHMMTDTHASKNTSTDRSTLDEETVPGGGHTSFILKRGQILQITDVEGGGNVGLLLFNAHQTSERLNLPDTLKGQHTAKLTAGYCLYSDMGRVLAAIVTDTCGWHDSMGGVLNAQEVHEKYGQGRYQELRNGFFRNGMDNLLVEMGKWNLNLQDLLMTINLFSKVTVDAQGQFRFHANHSQAGNYIELYAPMDTLVVLTALQHPMDPNPTYAPRPIALTWSRAEGEDVAKYCREFREENARAFHNTERGYL
MGSDKIHHHHHHMMTYYFIADLHLNESQPQITHQFLQFMQQKAPLAQAVYILGDFFDFWIGDDEQSVLISQVKLALKKLTASGVKCYFICGNRDFLLGQTFAQQTGIQLLADYHLLDLFGERTLLCHGDTLCIDDIKYQQFRRRVHQKRLQKLFLWLPLTLRIKIAQKIRRKSKQDKKNKSADIMDVNQAFTAQKVHQYGATHLIHGHTHRQAVHFEQNFTRIVLGDWRPDRSSILKVDEKGFEFL
MGSDKIHHHHHHMNAGLDGLLLLRAPNLAYATGLFLSANERPMGVWLPMDGDPILMLPGLERENAKGTGLTDLRFYDEFPGKEPPVLWMLDQIGRKHIGIDALDAALLDAARDKAVRIDLTDHAMAARTIKEPEEIALTVEAASFADLFLTRLHAAAGDIINQGGTEADLMADAMAHARGALMAKHKQAFSGTPMGITASVHSGPRAALPHGAVLERVPQPGETLIAGIGASLGGYHAESGVTLIVGSISAEQRQIMAAMKACNDAGVAACGARTTCTQANDAALDALRAAGLGDTIRHRIGHGMGLEGHEDPWLAPGDPTPIQTHMIFSNEPGVYRPGIDGYRTINTMIVTEDGVDIPSRFQANTPIDARVIAL
MGSDKIHHHHHHMNDPAHPPIPPVSKRDAPAFSDLQHRATSASAFTQGSTTYHDVRPGYPAEAVELARGFGRVLDVGAGTGKLTSELTADQVLALDPSMDMLRVFRSALPAVPCWQATAEHTGIRDNAVDLITCAQTWHWVDVTAASAEFDRVIAPEGAVLLVWNNLDTSIAWVHRLSRIMHAGDVLKPGFTPETAAPWIIDREIRTTWNQHLTPEEIIQLAHTRSYWLNASEKIKERVDQNLQWYLYEHLGFSPDNPVELPYRCDAFLLSRSGTLAGRSSNL
MGSDKIHHHHHHMNDYDNNSNINEDAWNKETYSAWVKRFGTPDTAAKKISKDPSKILSVLHEKLGDVKGKKIMNIMGSNGSKAVALALLGADVTVVDFSKGNMDYALDLAKEADVKIDYILSDILKLPEDKLTADYDIVFAEMGIIHYFIDLKPFIKTINRLLKEGGLFVLRDFHPVSTKLITSRGSTAKVRKHKVTGDYFDTSLEEKDAAFSKYLIDNKEPEKVLLRKWTLGEIVTSVAEGGFKIKKLDEEPNLSCDNFDKGIPKSFTLTSEKLS
MGSDKIHHHHHHMNELDIIKIISKNLSYSNGVEKGIGDDCAVFKFENQHLVVTTDMMFKSTHFPSILTPFQIGMRVVTANVSDIAAMCAKPLGMVISMGFDNPKKTFIDEMSKGINFISKEYGCPIAGGDTNKAPELTLSGTAFGITDNPIYRGGIIGEDICITGDVGKVNCALKLLEMKDKGILGNIEFEKTMSEFPRIMKKLAEPKARVKEGLLLNKIITSCCDISDGLSKDLNYTGNFEINSKNLLNSVSREVIEFCEKFDMDLLKTVLNSGEEFELLFTTPDFKKAEEKLKDINSVTKIGKVVESGKTVDGISVELEGYVHKW
MGSDKIHHHHHHMNETGLLDAYGTEEKEAYIGVIASIATADRVATEDELEYLNALSEAVGINPDVAEAAAKDRSDESLSKYLNALKGSDLRFSLITDIVSFARSDGRYTADEEEKIKNSCRYLGITDEQVTVLEELVEKSNILITIPEEATDEGFFEKNGFSQMLKKANIPLISIVKGLLGLAAPFVLSKMVRSRSLSGSPAAGGLGGQLGGTVLGTFQAGRIGGLGSILANLNGIRGYADIGTILKKAIDKKEINS
MGSDKIHHHHHHMNEVIENVKEYYGKILHSTADLQSKACCCSPDSMPKEVKKALIFIADEVINRYYGCGSPLPPLLEGMTVLDLGCGSGRDVYVAAQLVGEHGRVIGVDMTQEQLDVAKKYEDEQRQRFGYAKSNVKFLSGYIEDLRAAGISDSSVDIVISNCVVNLSPDKEKVFAEIWRVLKPGGELYFSDVFADRRIPEYLAADPVLRGECIGGALYYEDFRRIMQRVGFTDFRYKSIRNIDLDNEAIIEKVGFANFTERTVRAFKLDDLEDICEDYGQIAVYNGSIASSPHFFDLDDHHRFFTGKPLLVCGNTAAMLAKTRFASAFRVIGNRSTHYGVFGVCGGKSETNCFDTGSSCGC
MGSDKIHHHHHHMNFIDTLKSVDLILSTGEVPLIVGESGIGKTALANKLAKENDWSLIVIDGNLLKEGEIGGLPTIESYVGVNSNGYKTEKKTTVYAVHNKLREIDEEISKSKTVLLFIDEINRCEHTVQQELMNLILNREINGYKLHDDVKILAAMNPSSKYGSDFDYQVVDMDAAQENRFVWLNMESDHTQWIKWAIDEGIERKVIEFISTFPEYLHKINEDDVRATPRSYERVSKIYKVYKEKNNSIPRAVFLNVVKGNVGKVIAEEFISFIESNFEPLISYEDVFLGESIDESIVERVKNESHTRLYLSAMNILKDLELNIKNDKYESNHYINRFIEFLKMYPVDLMIGIMKDIRNSYIEVYKKAIENEEFVKSYFESYSLIRG
MGSDKIHHHHHHMNFNSDLLNLNSKSPAFSITIEGKDVTTVMDARLMSLTLTDNRGFEADQLDLELDDADGQIVLPRRGAVIHLALGWKGQPLFPKGAFTVDEIEHSGAPDRLTIRARSADFRETLNTRREKSWHQTTVGEVVKEIAARHNLKVALGQDLTDKALDHMDQTNESDASFLMKLARQYGAIASVKDGNLLFIRQGQGRTASGKPLPVITITRKAGDGHRFTLADRGAYTGVIASWLHTREPRKKETTSVKRRRKKATTPKEPEAKQGDYLVGTDENVLVLNRTYANRSNAERAAKMQWERLQRGVASFSLQLAEGRADLYTEMPVKVTGFKQPIDDAEWTITTLTHSVSPDNGFTTSMELEVKIDDLEIE
MGSDKIHHHHHHMNFTMNFPGLKDTFITKVEEVGEIVRLYVEMERKVHRCPKCQKRTKKVHDYRIQKIKHLKWFERQTQIFYKRRRYVCACGKRFAENNSFVERYQRTSIEWNQAVAIRAIKGKTFKETAENYGSSATTIVRRFDQISSSEIRPVEELPAIIAIDEYKGDTKEGKYQLIIADAVTKEPLDILPNRYKRTIKDYLRRHGSKVQMVIMDMSPSFKAAVQEALGRPVIIADRFHFCRYIYWALDGVRRRVQKDFHAYDRKKCKRMKHVFHKENSRLTEEERWYLDRYLKMSTELQKAYELKEAYQDWFKRSKEIGATQIERVKKELKAIYKLVKNSGIPEMCRAIGTFENWQTEILNSFAYGYSNGFLEGINNSTKVLKRNAFGFRSYERFRAKILLTHKYKRIGVHIG
MGSDKIHHHHHHMNICDLAPAYIRAISPYQPGKPISELAREMGMDEQSIIKLASNENPLGTSPMALNAMSKALDEVSLYPDGSGFELKAALSERYGVTSDQIVLGNGSNDVLELAARVFLKPGASTVYSQHAFAVYPLVTKAVGGIGISVPARNYGHDLDAMLDAVAPETRVVFIANPNNPTGTLLPADDVLRFLERVSPDVLVVLDEAYNEYLPPALKGDSIAWLKQFPNLLITRTFSKAYGMAGVRVGFGLGHPDVAGLMNRVRQPFNVNNIGLAGAVAALQDEEFVKRSYALNQAGMLQIVTGLRQMGIEYIPSYGNFLSFRVPGNVKAINESLLKQGVIVRPISIYEMPEHLRVTVGLESENEKFLKSLAIALETTEGAAADTIPEMAVSFPKVASGGTA
MGSDKIHHHHHHMNIEDTLLKQDVWRFIDNTTINPAFDAIQSFATDDTLCRSVGARMAPSTVRGWVHEKTVSLGIQDSKLPDIDKGIAFLQEQGYRVVVRNSGGLAVVLDSGVLNLSMVLPDAERGIAIERGYETMFTLIKDMFVDCNEVIEAKEIEDSYCPGSYDLSIQGEKFAGISQRRMAKGVAVQIYLAIDGDQTTRSELIRDFYTISGKAKQTKYTFPDVNPNVMGSLSDLMKNDISLNGTLVRLFNSLRHYAGELVSGTLTSEELDLFPAYYERLIARNDKVLT
MGSDKIHHHHHHMNIFDILRDYLLVQVDKYNLNMDMISIVSKSLSSKEAIGNTKRKDFPIIVGKEIMLEADFKGAKGQAFTSTPSTFEGSLKDILSLDLHDNPHDRSLFIASLNAVMKYLGKTDRTIHCKNNEPEVCAKKFPEFIKMEFGNPKVAIIGYQPAIIDNIKDFFETRVLDLNPEFVDTIQYNVKIEDGIRDYEDVISWADLVICTGSTLCNNSIINFLSLNKPVYYYGTTIAGASNILGLKRLCFCSK
MGSDKIHHHHHHMNIKDLKYFYHLSQLQSFTKVAEKFQISQPSVSYSVKRLEEQFNCDLIVKDPSHRTFALTQQGNILKRHLERILPEISSAQKEMNRSLAHYSTLGCPPIIINYLLSLLKETNQDLAFLKRIRSIRGGSVELLEQLLQGDLDLSLIGTIEPFYHDELVIKKILHRKLYLIVSKDHLLAKRKKAIAFADVLKENFILLDEHNIHLKAFDYLNQTHQNQAQIFFKSDDVTLIKQMVSHNMGVSLLTDISLTKQDHHLVKIPFKENNKLGFYVNYAYLKSSTLTPDIRHLVDLLDKIAQSF
MGSDKIHHHHHHMNIKQLHYFLVVAEEKQITAAAKRLYIAQPPLSYQLKQLEKELGAQLFKRTAHGIELTDAGQTLQSYASEILSLAQNAKNQVHKTISGELGTVAMGIVSSSTGYMPIAAFKELTQFYPEINFDIYEDNTFGVLDKLEKKTIDMGIVRTPYNRTGLNAKTLTTEKMMAVTNDITLLHKKELRIEDLKDQPLIIYRRFEEMFNQTFAHHGIKPFYAMKCDDSRTAITWAKQNMGLALVPESIATTYAKNKMIAVKHVNWITHLQLVWRKDQIVTPLMKKIISLVK
MGSDKIHHHHHHMNINPTEKLSQPIVEKVAIVGAGPGGLAAAIALRSQGIDVQIYEKAQEFRPAGTGLGLAPNGLNFLDAIAPGIVETLKGSGCEVHHTVLKNFRGETIRANASKYQEKYGQPLVTVWWYRLQQVLASRLPSDIVHLNHRCIGFEQDENGVEIRFDGEKSVYADLLIGADGVNSVIREILFGEGKPNYIGSMCWRAVIKYHHELFNDYELVFVKGNQQFMYLLNVGGGYMSWISRKFSPEYSLCHSADEVKSRILHELADWDESFQVVVQATPAEQIWEGPICDRPPLTHWSQGRVTLLGDAAHPMAPAMGQGANTTFEDAYELRECFSQSANLQEALTSYEQRRMQRTEIIQARSALGEMRYYESNTVASNGQREQTMSVNDDFHKWLYDYKPSATIKF
MGSDKIHHHHHHMNKMKIAHLTSAHPRHDIRIFVKECSSLAAAGHEVTLIVADGQGEEIRNGVRIHDVGPKRGGRLARMTGTVKRVYQAALRLRPDVVHFHDPELIPAGVRLKQAGIKVVYDVHEDVPRQILAKHWIPGAVRPLVSGGFETLEDWAARRFDAIVTSTPHIRKRFERLGANALDVCNFPILEELVRDTPWESRRNEVCYIGGISRIRGIEPIVAALPDTSTRLNLAGPWSESDLRAKVTAEPGWARVNDLGVLDRKGVAEVLARSKIGLVTLFPTPNYVDALPIKLFEYMAAGMPVIASDFPVWREIVADAGCGVLVDPQDAAAIAAAINELLGDEERMRKLGESGKRAVLSKYSWAAEADKLVALYASL
